Measured values from a protein production outcome set (Wang et al. 2014).

Assay: label from the status in PepcDB records
For “MTLRPDPTFYPSAKLAMEGPVEKLAFTLMLSPDASKPDGLAVVDVDPTSEKFGQIVHQLIMPNKGDEFHHFGWNACSSALSPLTGHAFLERRYLIIPGIRSSRIYIVDVKEPLKAKIHKIIEPEEVFAKTGYSRPHTIHCGPEGIYVSTLGGGGEDGTDGPPGIFILDCETFEILGRYEMDRGEQTKHYDFWWNLPRDYMVSSEWGLPPQFENGIVPEDLLSNKYGHKIHFWKLRDRKNVQTIDLGANHQMALEIRPAHDPSKDYGFCGVVVDTTNLQGAIFTWWQKDDGTFEAKKTITIDPVPADADDLPDLLKGFGACPPLVTDIDLSLDDKYLYVACWGLGEMHQYDVSDPMNPVLTGKVEIGGIVKKTPHPNGKTFGYGPQMVEISRDGKRVYWTNSLYSTWDEQFYPGDRGAAMVMANVGENGGLTLDKDFWVDFPAGYRSHQIRLEGGDCSTDSFCYPSV”, the protein production was “failed”. For “MTLSRSSADDSTNNANRSYSAVAGTDNKRKRDEDSSDYVGVAESLEMLKKQEIDADHMAASAQQTLISWRSGENSRSLSSSGECSSSNRPESTRLQIFVRMMSGGKTIVIHAEKYDTVEKLHQRIEWKTKIPALEQRVIYKGKQLQRENSLTYYSIEQDASLQLVARMQSTEHPVAWQTIDDIMYTISRMYKGENLQSNINEKIVTFFAMIPVESDESIAKYLNIFSNSSVPAALVMLYASSLERNKSCAKSSVKLFLSNCVALPKNQKNYCLPIVLEFCKLLRKVCPDQKLYVTCRNTLGSMLETFDNPHGVYNDQYETFGVEIFPFFTELTGLLLNELAQNSGPSFCDFQKVSSFWQQLRKVIELKVAFPIPIVLPMQSTALEAEIRHLHRLFGSLLTTMDLCMCRVESSLADKEVGNSETMSSSWSQYLSILKIINSMSNIYQGAKGQLAVMLNKNKVSFSALVVKFAKRGDDHQWIFEYKEATNFEARRHLAMLLFPDVKEDFEEMHEMLIDRSNLLSESFEYIVGASPEALHGGLFMEFKNEEATGPGVLREWFYLVCQEIFNPKNTLFLRSADDFRRFSPNPASKVDPLHPDFFEFTGRVIALALMHKVQVGVLFDRVFFLQLAGLKISLEDIKDTDRIMYNSCKQILEMDPEFFDSNAGLGLTFVLETEELGKRDTIELCPDGKLKAVNSKNRKQYVDLLIERRFATPILEQVKQFSRGFTDMLSHSVPPRSFFKRLYLEDLDGMLRGGENPISIDDWKAHTEYNGFKETDRQIDWFWKILKKMTEEEQRSILFFWTSNKFVPVEGFRGLSSKLYIYRLYEANDRLPLSHTCFYRLCIPRYPTITLMEQRLRLIAQDHVSSSFGKW”, the protein production was “failed”. For “MTLTRDSLLTLEAYAKVRRQEHARVIAHKKRRAVSIGNHLRLLFEDETTIRYQIHEMLHIEKIFDEDGIQAELDAYLPLVPDGSNLKATLQIEYENETQRRAALARLVGIEDRVFLRVDDEAPVYAIADEDLERDTAEKTSAVHFLRFELGDAMKAKLKAGAPLSIGCDHPHYPIQAARIDPDVAASLAGDLD”, the protein production was “not failed”. With “MTLTSGDKQGNTPGQASDTERWASLIGGGALVLLGLRQASLRGVLTALAGGGLIYQGATKQSTIQQAQEAIGINKPIKVEKTVTINKPADELYRYWHNFENLPTFMKHLKSVKVYNEKRSHWIANAPLGNSVEWDADILEDRENEFISWASAEGADVENSGFVRFQKAPGDVPGQAASRLRGTEVKVVLEYNLPGGALAAVVAKLFGEEPEQQIGDELRRFKMLMEAGEIATTEGQPSGRK” the protein production was “failed”. With “MTLVLILLALIAFIVLSTTRLKLHPFLALLAAALIAGFAYQVPTAEIVKTVTGGFGSILGYIGIVIVLGTIIGVILERSGAAITMAESVIRLLGERFPTLTMSIIGYLVSIPVFCDSGFVILNSLKNALAARMKISTIAMSVALATGLYATHTFVPPTPGPIAAAGNLGLDASLGLVIVVGLVVAFVTAMAGMWWANRFVGKDIPLVDDGQVVQTEEDFSELRARYGKLPSATQAFAPIFVPILLICLGSVAVFPSKPLGEGVLFACLNFLGQPVIALLVGLALACTLLKGQSKREEFHERVVEGIQSAAPILLITGAGGAFGAMLKITPLGDYLGSTLSALGIGLFMPFVVAAALKTAQGSTTVALVTTSALVAPLLPQLGLDSEMGRVLTVMAIGAGAMTVSHANDSFFWVVTQFSRMTVSTAYRAQTLATLVQGIAGMLAVWLLSLVLL” the protein production was “failed”. For “MTLWQLIKAEIRSVLTNPVVTLTVFGGVVFYSFLYPLPYAQQTPREQPIAVVNLDGSQTSLKLERMVDATPQVKIVSRLHTVEDAKQAFLNREITGFLVIPEHFYKDVMLGKSPTLAYAADASYFLVYGTVVEGLAQAGGTLGAQVKVSKMVIEGVPLSLASHNYSAIKLNMKPTFNPTMGYIEYVVPAVFVLILQQTLIMAVGLQTGSQRHGRGYWSQVSTGSLLLVRTLVFIAIYYLLSAYYFGFSFERLSVNHIAKAGELLTMLFPFLLGCCGLGFWLGYLLPRRELVTLVVLVSSMPLIFLAGFIWPVESIPAPLLWIADLSPSTWSIKGFLALNQMGATWQQVAKHWTALWLLVALWGGVAYWIAKRNNKPVVTESLS”, the protein production was “failed”. In the case of “MTMLDAAAPPDLAGLFAPAQRRSRTVDWQEPGPVARAAMAMSGLEVMQAIRDGRLPPPPLARLIGFKMAEVHRGRIVMQLDPDQSLENTAGLLHGAIAAALLDTAMGCAISTQQPAGQGSVTMDLKLSYLRPLSVRSGTIVAEGRVVKLGRQSSYTEGFVYDGAGKLAVHATATFAMLGAGPVAAPHPHES”, the protein production was “failed”. For “MTMLLDGGPQFPGLGVGSFGAPRHHEMPNREPAGMGLNPFGDSTHAAAAAAAAAAFKLSPAAAHDLSSGQSSAFTPQGSGYANALGHHHHHHHHHHHTSQVPSYGGAASAAFNSTREFLFRQRSSGLSEAASGGGQHGLFAGSASSLHAPAGIPEPPSYLLFPGLHEQGAGHPSPTGHVDNNQVHLGLRGELFGRADPYRPVASPRTDPYAAGAQFPNYSPMNMNMGVNVAAHHGPGAFFRYMRQPIKQELSCKWIDEAQLSRPKKSCDRTFSTMHELVTHVTMEHVGGPEQNNHVCYWEECPREGKSFKAKYKLVNHIRVHTGEKPFPCPFPGCGKIFARSENLKIHKRTHTGEKPFKCEFEGCDRRFANSSDRKKHMHVHTSDKPYICKVCDKSYTHPSSLRKHMKVHESQGSDSSPAASSGYESSTPPAIASANSKDTTKTPSAVQTSTSHNPGLPPNFNEWYV”, the protein production was “not failed”. In the case of “MTMLLSIIVPTFKPQKTYFEECLFSLFNQTMFHYLYEVIVVLNGDIDTQYTDMILDIFAYKPAGLYCRLIKTDQAGVSNARNLGIDAAKGQYIGFVDDDDIVSSDYLEELCKISSRNIVGVSNVHTFRKTIEEKEDNFFACRIIQQRECQYSLFRNRAILAFPVAKLIHRDIIGNRRFNPRFKNGEDALFMTEISDLIGGFRFTKEYTTYYVRERAGSASRRPLKRGQLCWDTFMLIKAYVSIYLSSPFSYNFLLFASRIPGSIKGAIKLSRNTAFFLEHHHHHH”, the protein production was “failed”. With “MTMMTATQALSVNPATGQTLAAMPWANAQEIEHALSLAASGFKKWKMTSVAQRAQTLRDIGQALRAHAEEMAQCITREMGKPIKQARAEVTKSAALCDWYAEHGPAMLNPEPTLVENQQAVIEYRPLGVILAIMPWNFPLWQVLRGAVPILLAGNSYLLKHAPNVTGCAQMIARILAEAGTPAGVYGWVNANNEGVSQMINDPRIAAVTVTGSVRAGAAIGAQAGAALKKCVLELGGSDPFIVLNDADLELAVKAAVAGRYQNTGQVCAAAKRFIVEEGIAQAFTDRFVAAAAALKMGDPLVEENDLGPMARFDLRDELHQQVQASVAEGARLLLGGEKIAGEGNYYAATVLADVTPDMTAFRQELFGPVAAITVAKDAAHALALANDSEFGLSATIFTADDTLAAEMAARLECGGVFINGYSASDARVAFGGVKKSGFGRELSHFGLHEFCNVQTVWKNRV” the protein production was “failed”. For “MTMYADLVLHGGSIATLDDKLEQAQAVAIAAGRIIAVGSDAHCLALAGPGTRRIGLGGACVMPGINDSHCHPDGQAVKAGRWDDVSQVATQQALLARIADFHRRMPAGAWYLGFRFDDTHSGGYPARQALEQAAPGRPVFLLRRDAQVGLASAPALAALLASGLATQVPPHCLDAATGLARGRGVFAFTTHIAAADSLDDYLEGFPTLFAEMGRMGITSVHNALTSALAVQAYRALHGAGRLPVRVGMMLNGRDQRLVDETLAAGLRFGAGDDRLYLLGVEYGSDGSTSGRTAAYYQPYVGEEGGDGRPANRGDVNFSAEDLAAKVGRVMAAGLQAAATGNGDRGIDFALDAFEQGLRAHPGAVPPRIEHCCCAPPAIQQRMAALGVIDSSAAGFAYNLGDAYLRNRPSAEMAWMWPHRDMLDRGVLVCAHSDAPVCERNPFLGMWSMVTRKTASGASLGAGQAITPLEAMRCYTANPARAEGQAARKGTLSPGKLADLIVLDRDPCAVDPDEIRHTQVLATLVGGQATYRAAGAPSWADELPMRE”, the protein production was “failed”. In the case of “MTNAMELYQMLPKTNCKKCGKTSCMAFAVALMARELTPEDCPPLKEEPKYKESYEKLSEIFKPSEGATETGLIVHEDLCFGCGNCVVACPPNVANDPYGVGSGKAPTNPGRLVLTVEDGVVKAQNLGECRRFGKNKILCNGCIVTCPVEAIEFV”, the protein production was “failed”. With “MTNFNIDFYAPAKEQRASTHSVMGLSSVPHPSPLFLETPYSELWSRHFGSAVVSLSVTADLAMLAVACKNRQLTVLSRDGELHWSHRLDDDITATAIASNHHVAVGTQQASDGAVAVYLFDADGRELFRTSLKSAVSSLTHSSNGEHLVIQCKNQAWYIASRVADTYQLSQANAEDVAQSKRNDALLAVKDRLLSEPNLYPHAASVAVSLEGTAAIGSLDGKIHLIDCQGKPLWSRQVDGEVWTLGISENGAIIASGCTDGTVKLLANHAHDAYNQYIHALQHSAERLKNTAEQQQAVSEILASLSQTGLAVYAVNWLQEGTLQLAPDALDEIVIKLLSEQVQRFPKHYASHFILAQTYQRRQEWHQAARHFTWAGQNERMKLKSFTLAAESFQKAGLPFAAKSAYRRARELTVTEEAKKTLYTLGRIHEEQGSITDAQKYYEVVFTLNPDYLDVCARLQNLNSPPATLTSRAVPENKDWYASLIRELLSPVSQHGFDLARQDNPAHSRTARLTSVAEHRKRLLSIVSEFSLDSVDNTADARLGYDVAAYMRYDCSVPEDEAKKSLELVNMLDCIKHYGPFSKSLDIGAATGRYPTLLAQQGIQAFGVDLEPMAVEFARKKSNGALNPQFHQGDARDLPFESTQFDLVTCMMGTAAHFPRQDVPTVMSEIHRCLVPGGFCVISTWDIECPHLTYLSIYSHEQKELMRQNAISRADVSEIAIAQGFVVEEIRGVGLLPESLGYELDLQQDGPERIRNLLDMDLAFQAKFPDLHGQMYMLIIRKI” the protein production was “failed”. For “MTNFQRARSEEQRAVRRQAILDTTAAMLEEMPVGEVSLNELSRRVGLAKSNVLRYFESREAILLELLDRAWQQWVADLPALVHAGVDQGAPVSRRAEQFAAVIAASLAGRQVLCDLLSAQAGVLEHNVSPQVAARYKRAAVANVADIAALAHQHLPELGASAPQLTAVMIMAVGAVWTHARPSPAMLSAYEADPSLTAFKLDFVTTLQEMLATLTAGTIARESA”, the protein production was “not failed”. For “MTNHNNSGKKKVAILIEQAVEDTEFIIPCNGLKQAGFEVVVLGSRMNEKYKGKRGRLSTQADGTTTEAIASEFDAVVIPGGMAPDKMRRNPNTVRFVQEAMEQGKLVAAVCHGPQVLIEGDLLRGKQATGFIAISKDMMNAGADYLDEALVVDGNLITSREPGDLAIFTTAILSRLGYGGKDAALPDEKDRNAEWWKLADAWGGSTKGDIVRGLNTALGGERYSLEALEKYTEKESDVEAKALFQEMITNKQRHIEYLETYLTRLGEKPSLSANIANQYAKVKTALTGSDDIYQIRSALGDIQTGIGDIGNLCAMYTDPIATAIFKEIYKDLVKYEQRLVSLYRTRTNATVQPPKPTTGAAVSM”, the protein production was “not failed”. For “MTNIIKIRASVFIPMSWTEAKMDMETGQVIQFEGDSREFTPHAVNTMRSRVEQEVVVDFYKQEVFSYANTGITTEKVISPDGSVNKRTGKASTENIVCTDIVWNSGGVQFKMSASASNPLNVYAPPVDYVLNVCVKKDGSIDVQGEHDGFPCFEFYKQVDFGPFEKIYTHDFRETGDTAAALGGNMDYSFTKRL”, the protein production was “not failed”.
